Source: patent US20110142884A1, “Materials and Methods for Making Improved Micelle Compositions” (The Board of Trustees of the University of Illinois, priority 2002, published 2011)

Test: Circular dichroism (CD) spectral analysis of peptide conformation, % helicity
Type: physicochemical
Experimental: According to this example, circular dichroism (CD) experiments were performed to determine the conformation changes of VIP in phospholipid micelles, pH and temperature changes, and in aqueous solutions. CD spectra were recorded on a JASCO J-700 spectropolarimeter using a fused quartz cell of 1 cm pathlength. Spectra in 0.15 N saline (pH 6.8) and 5 mM Hepes buffer (pH 7.4) were measured at a peptide concentration of 4 μM and at a lipid concentration of 1 mM. The effects of CaM, pH (6.8 or 7.4) and temperature (25° C. or 37° C.) on VIP conformation were also studied. The conformation of VIP fragments was likewise studied. All measurements were carried out at room temperature (˜25° C.) unless otherwise noted. A bandwidth of 1.0 nm and a step resolution of 0.5 nm were used to collect an average of 9 accumulations/sample at the […] (200-260 nm wavelength). The peptide spectra shown have the background buffer scans, and empty vesicle scans subtracted and were smoothed using the noise reduction function. The temperature during spectral analysis was maintained by using a circulating water bath attached to a jacket surrounding the fused quartz CD cell. The percent helical characterization of VIP was determined by a method of Haghjoo et al., Peptide Research 9 (6):327-331 (1996): % helicity=[−(θ208+4000)/29 000]*100 and are reported in table 1.
According to the example, CD was used to determine the conformation of VIP in saline, Hepes buffer and phospholipid micelles at room temperature and at 37° C. The CD spectra analysis was performed after 13 μg of human VIP incubated with 1 ml PEG-DSPE (1 μmol) micelles for 30 min at room temperature as determined by preliminary studies. A bandwidth of 1.0 nm and a step resolution of 0.5 nm were used to collect an average of 9 accumulations/sample at near UV range (200-260 nm). The temperature was maintained during spectral analysis by a circulating water bath attached to a jacket surrounding the fused quartz CD cell. The evaluation of VIP molecule conformation in SSM by using circular dichroism was successful because the distortion caused by spherical particles was eliminate due to the small size and univesicular structure of the SSM. […] The phospholipid micelles were ideal in our study of VIP conformation since it provided a hydrophobic core similar to the phospholipid bilayer of the SSL. Moreover, both the negative charge, and the hydrophilic layer provided by the PEG mimic the conditions of our SSL and make it possible to infer the VIP conformational results.
According to this example, the method of example 4 was repeated to determine the conformation of VIP in saline and phospholipid micelles plus calmodulin (CaM). CD spectra measurements were performed after 13 μg/ml of VIP was incubated with 1.0 μmol/ml of phospholipid micelles for 30 min followed by 10^−10 M CaM incubated with VIP in phospholipid micelles for 2 h at 4° C. (conjugation paper). A bandwidth of 1.0 nm and a step resolution of 0.5 nm were used to collect the average of 9 accumulations/sample at near UV range (200-260 nm).
According to this example the method of example 4 was repeated to determine the conformation of VIP fragments in saline and phospholipid micelles. CD spectra measurements were performed after incubation of VIP fragments with phospholipid micelles, at a molar concentration equivalent to VIP (i.e. 9 μg/ml for VIP10-28 fragment and 6 μg/ml for VIP1-12 fragment), for 30 min. A bandwidth of 1.0 nm and a step resolution of 0.5 nm were used to collect the average of 9 accumulations/sample at near UV range (200-260 nm). Specifically, CD spectra of human VIP fragment (1-12) and (10-28) in the presence of phospholipid micelles are shown in FIG. 5. […] These effects correlate well with the % helicity of VIP fragments determined in saline and in the presence of phospholipids (Table 1). […]

vasoactive intestinal peptide [VIP]
Conformation from CD spectrum in the presence of phospholipid micelles (SSM) (phospholipid micelles (SSM), room temperature): predominantly α-helix conformation | % Helicity (in the presence of) Phospholipids (37° C.): 67% | % Helicity (in the presence of) Phospholipids (room temperature): 27% | % Helicity (in the presence of) Saline (saline, 37° C.): 2% | % Helicity (in the presence of) Saline (saline, room temperature): 5% | Conformation from CD spectrum in saline (saline, room temperature): primarily a random coil structure
